Reference: publication PMC9528458 (Science signaling, 2022)
Numbering of substitutions follows the chain as printed. Names may count otherwise. Where two headings read alike, the source gives them in different places.

Tests used:
[1] = molecular target: T1, mouse Fzd4 (residues 41-537), monomeric, in lipid nanodiscs (mouse, UniProt Q61088 41-537); assay: BLI
T1 sequence (looked up): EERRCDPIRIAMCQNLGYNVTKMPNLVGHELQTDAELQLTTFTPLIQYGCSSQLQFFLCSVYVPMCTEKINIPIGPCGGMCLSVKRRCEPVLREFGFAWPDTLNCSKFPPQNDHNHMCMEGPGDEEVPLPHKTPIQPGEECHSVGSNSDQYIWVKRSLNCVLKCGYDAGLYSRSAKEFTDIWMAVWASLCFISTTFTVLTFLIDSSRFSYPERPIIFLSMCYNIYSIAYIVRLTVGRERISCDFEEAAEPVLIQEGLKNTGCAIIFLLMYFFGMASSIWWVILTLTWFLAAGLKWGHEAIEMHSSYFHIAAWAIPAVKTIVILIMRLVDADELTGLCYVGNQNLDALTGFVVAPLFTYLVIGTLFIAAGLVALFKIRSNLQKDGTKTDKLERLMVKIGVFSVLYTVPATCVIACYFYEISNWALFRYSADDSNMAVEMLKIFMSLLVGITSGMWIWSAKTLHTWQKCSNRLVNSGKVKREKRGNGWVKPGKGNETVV

[2] = molecular target: T1, mouse Fzd4 (residues 41-537), …; assay: BLI; remark: listed apart in the source
[3] = molecular target: T2, human FZD5 (residues 27-585), in lipid nanodiscs (human, UniProt Q13467 27-585); assay: BLI
[4] = molecular target: pre-formed xWnt8-FZD5 complex in nanodiscs (human | Xenopus laevis, UniProt Q13467 27-585; P28026 23-358); assay: BLI
[5] = molecular target: human FZD7 (residues 33-574), in lipid nanodiscs (human, UniProt O75084 33-574); assay: BLI
[6] = molecular target: T1, mouse Fzd4 (residues 41-537), …; assay: BLI; remark: listed apart in the source
[7] = molecular target: T1, mouse Fzd4 (residues 41-537), …; assay: BLI; remark: listed apart in the source
[8] = molecular target: T1, mouse Fzd4 (residues 41-537), …; assay: BLI; remark: listed apart in the source
[9] = molecular target: T1, mouse Fzd4 (residues 41-537), …; assay: BLI; remark: listed apart in the source
[10] = molecular target: T2, human FZD5 (residues 27-585), in lipid …; assay: SEC
[11] = molecular target: T1, mouse Fzd4 (residues 41-537), …; assay: SEC

T2 sequence (Q13467 27-585): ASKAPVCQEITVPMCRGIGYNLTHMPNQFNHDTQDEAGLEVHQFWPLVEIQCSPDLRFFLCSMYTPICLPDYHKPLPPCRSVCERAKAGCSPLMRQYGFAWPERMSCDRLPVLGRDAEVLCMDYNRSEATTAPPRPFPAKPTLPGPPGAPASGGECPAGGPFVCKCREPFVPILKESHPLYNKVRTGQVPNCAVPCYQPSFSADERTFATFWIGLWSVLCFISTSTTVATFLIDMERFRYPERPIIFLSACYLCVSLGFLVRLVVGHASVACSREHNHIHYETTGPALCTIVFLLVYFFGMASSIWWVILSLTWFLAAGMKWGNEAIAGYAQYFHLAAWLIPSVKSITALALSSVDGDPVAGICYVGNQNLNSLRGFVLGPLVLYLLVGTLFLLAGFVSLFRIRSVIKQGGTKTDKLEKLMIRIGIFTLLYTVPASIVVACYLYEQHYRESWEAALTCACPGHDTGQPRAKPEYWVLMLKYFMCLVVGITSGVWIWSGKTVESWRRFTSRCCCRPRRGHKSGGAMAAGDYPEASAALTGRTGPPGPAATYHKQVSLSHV
Sequence of pre-formed xWnt8-FZD5 complex in nanodiscs (Q13467 27-585, one chain of several): as the sequence (Q13467 27-585) above

B1: DEP domain of mouse Dvl2 (residues 416-510) (domain or fragment, UniProt Q60838 416-510, looked up)
chain: GLSVHMDMASVTKAMAAPESGLEVRDRMWLKITIPNAFLGSDVVDWLYHHVEGFPERREARKYASGLLKAGLIRHTVNKITFSEQCYYVFGDLSG
Kd [1]: > 10 µM | Kd [2]: ~2000 nM | binding result [3]: binds | binding result [4]: binds | binding result [5]: binds | Kd [6]: 1200 nM | Kd [7]: ~40 nM

B2: DEP domain of mouse Dvl2 bearing a G436P mutation (domain or fragment, UniProt Q60838 416-510, looked up)
chain: B1 chain with G21P
binding result [8]: binds

B3: human Norrin (ligand, UniProt Q00604 25-133, looked up)
chain: KTDSSFIMDSDPRRCMRHHYVDSISHPLYKCSSKMVLLARCEGHCSQASRSEPLVSFSTVLKQPFRSSCHCCRPQTSKLKALRLRCSGGMRLTATYRYILSCHCEECNS
binding result [9]: binds

B4: Xenopus laevis Wnt8 (ligand, UniProt P28026 23-358, looked up)
chain: AWSVNNFLMTGPKAYLTYSASVAVGAQNGIEECKYQFAWERWNCPESTLQLATHNGLRSATRETSFVHAISSAGVMYTLTRNCSMGDFDNCGCDDSRNGRIGGRGWVWGGCSDNAEFGERISKLFVDGLETGQDARALMNLHNNEAGRLAVKETMKRTCKCHGISGSCSIQTCWLQLAEFRDIGNHLKIKHDQALKLEMDKRKMRSGNSADNRGAIADAFSSVAGSELIFLEDSPDYCLKNISLGLQGTEGRECLQSGKNLSQWERRSCKRLCTDCGLRVEEKKTEIISSCNCKFHWCCTVKCEQCKQVVIKHFCARRERDSNMLNTKRKNRGHRR
binding result [10]: binds | binding result [11]: binds
